Assay results from patent US20200024319A1 (Amgen, published 2020).

T1: CD25 (IL-2Rα) on the surface of T cells (human, UniProt P01589 22-272)
T1 construct: whole, on cells; also called cell surface CD25
T1 sequence (looked up): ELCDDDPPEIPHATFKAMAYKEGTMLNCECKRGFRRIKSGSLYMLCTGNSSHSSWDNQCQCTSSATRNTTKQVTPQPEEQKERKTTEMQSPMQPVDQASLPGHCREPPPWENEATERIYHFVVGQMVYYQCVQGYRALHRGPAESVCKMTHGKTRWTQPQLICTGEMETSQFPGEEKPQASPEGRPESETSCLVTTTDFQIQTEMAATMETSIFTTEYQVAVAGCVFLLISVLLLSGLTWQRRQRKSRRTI


Assays:
[1] = molecular target: T2, cynomolgus monkey IL-2 (cynomolgus monkey, UniProt Q29615 21-154); test: BIACORE
T2 construct: also called cyno IL-2

[2] = molecular target: T3, wild-type human IL-2 (human, UniProt P60568 21-153); test: BIACORE
T3 construct: also called hIL-2

[3] = molecular target: T1, CD25 (IL-2Rα) on the surface of T cells; test: binding to cell surface CD25 (method not described)
[4] = molecular target: T1, CD25 (IL-2Rα) on the surface of T cells; test: flow cytometry, binding to CD25 on the surface of activated T cells

Binder	Kd [1] [nM]	Kd [2] [nM]	binding result [4]	also measured
14G7 (antibody, V domains shown) VH: EVQLVQSGAEVKKPGESLKISCKGSGYSFTDYWIGWVRQMPGKGLEWMGIIYPYDSDTRYSPSFQGQVTLSADKSISTAYLRWSSLKASDTAMYYCARHRGGRSYYYGMDVWGQGTTVTVSS VL: not shown	~0.13	~0.28	–	–
9B10 (antibody, V domains shown) VH: QVQLVESGGGVVQPGRSLRLSCAASGFTFSSYAMHWVRQAPGKGLEWVAVIWYDGINKYYADSVKGRFTISRDNSKNTLYLQMNSLRAEDTAVYYCARGSYYDSSGYYFGEDFDYWGQGTLVTVSS VL: DIVMTQTPLSSPVTLGQPASISCRSSHNLLHSDGNTYLSWLQQRPGQPPRLLIYEISNRFSGVPDRFSGSGAGTDFTLKISRVEAEDVGVYYCMQVTQFPTFGGGTKVEIK	~0.16	~0.11	–	–
26C12 (antibody, V domains shown) VH: EVQLVQSGAEVKKPGESLKISCKGSGYRFTSYWIGWVRQMPGKGLEWMGIIFPGDSDTRYSPSFQGQVTISADKSITTAYLQWSSLKASDTAIYYCARHGHGSSSGRTYYYGLDVWGQGTTVTVSS VL: not shown	~0.13	~0.27	–	–
14D7 (antibody, V domains shown) VH: QVQLQESGPGLVKPSQTLSLTCTVSGGSISSGGYYWNWIRQHPGKGLEWIGYIYYSGNTHYNPSLKSRVTISVDTSKNQFSLKLSSVIAADTAVYYCARDWGRDAFDIWGQGTMVTVSS VL: DIQMTQSPSSLSASVGDRVTITCRASQTISSYLNWYQQKPGKAPKVLIYAASSFQSGVPSRFSGSGSGTDFTLTISSLQPEDFATYYCQQSHYIPRTFGQGTKVEIK	~0.14	~0.3	–	–
haD5 fused to the amino terminus of Fc, separated by a GGGGS linker (Fc fusion, IL-2 mutein N-terminal of the Fc; dimer by the Fc; also called haD5 Fc fusion; not shown: IgG1 Fc with an effector function mutation (A327Q, L234A+L235A or N297G)) APTSSSTKKTQLQLQNLLLDLQMILNGISNHKNPRLARMLTFKFYMPEKATELKHLQCLEEELKPLEEALRLAPSKNFHLRPRDLISDINVIVLELKGSETTFMCEYADETATIVEFLNRWITFSQSIISTLTGGGGS	–	–	–	binding result [3]: binds
18F3 (antibody, V domains shown) VH: QVQLQESGPGLVKPSQTLSLTCTVSGGSISSGGYYWSWIRQHPGKGLEWIGYIYYSGSTDYNPSLKSRGIISGDTSKNQFSLKLNSVTAADTAVYYCAREGRFGELGSYYFDYWGQGTLVTVSS VL: SYELTQPPSVSVSPGQTARIACSGDALPRKFAYWYQQKSGQAPVLVISEDSRRPSGIPERFSGSSSGTMATLTISGAQVEDEADYYCFSTDSSANHRVFGGGTKLTVL	~0.05	~0.05	–	–
2H11 (antibody, V domains shown) VH: EVQLVQSGAEVKKPGESLKISCKGSGYNFTTYWIGWVRQMPGKGLEWMGIIYPGDSDTRYSPSFQGQVTISADKSINTAYLQWSSLKASDTAIYYCARDTGYFDYWGQGTLVTVSS VL: SYELTQPPSVSVSPGQTARITCSGDALPRKFAYWYQQKSGQAPVLVIYEDRKRPSGIPERFSGSSSGTMATLTISGAQVEDEADYYCYSTDRSGDHVVFGGGTKLTVL	~0.008	~0.03	–	–
2C3 (antibody, V domains shown) VH: EVQLVQSGAEVKKPGESLKISCKGSGYRFTSYWIGWVRQMPGKGLEWMGIIYPGDSDTRYSPSFQGQVTISADKSISAAYLQWSSLKASDTAMYYCARQQVAGMLDYWGQGTLVTVSS VL: EIVLTQSPGTLSLSPGERATLSCRASQSFSSSYLVWYQQKPGQAPRLLIYGASSRATGIPDRFGGSGSGTDFTLTISRLEPEDFAVYYCQQYGSSPLTFGGGTKVEIK	~0.0012	–	–	–
9D6 (antibody, V domains shown) VH: EVQLVQSGAEVKKPGESLKISCKGSGYRFTSYWIGWVRQMPGKGLEWMGIIHPGDSDTRYSPSFQGQVTISADKSISTAYLQWSSLKASDTAIYYCTRQGRSFYYYGMDVWGQGTTVTVSS VL: DIVMTQTPLSLPVTPGEPASISCRSSQSLLDSDEGNTYLDWYLQKPGQSPQLLIYTLSYRASGVPDRFSGTGSDTDFTLKISRVEAEDVGVYYCMQRIEFPLTFGGGTKVEIK	~0.016	~0.041	–	–
HaMut1D (V69A, Q74P, N88D, C125A) (ligand, not shown: C-terminal FLAG and poly-His tag) APTSSSTKKTQLQLEHLLLDLQMILNGINNYKNPKLTRMLTFKFYMPKKATELKHLQCLEEELKPLEEALNLAPSKNFHLRPRDLISDINVIVLELKGSETTFMCEYADETATIVEFLNRWITFAQSIISTLT	–	–	–	Kd [4]: ~2 nM
HaMut4D (T37A, V69A, Q74P, N88D, C125A) (ligand, human IL-2 mutein; not shown: C-terminal FLAG and poly-His tag) APTSSSTKKTQLQLEHLLLDLQMILNGINNYKNPKLARMLTFKFYMPKKATELKHLQCLEEELKPLEEALNLAPSKNFHLRPRDLISDINVIVLELKGSETTFMCEYADETATIVEFLNRWITFAQSIISTLT	–	–	binds	–
HaMut3D (K35R, V69A, Q74P, N88D, C125A) (ligand, human IL-2 mutein; not shown: C-terminal FLAG and poly-His tag) APTSSSTKKTQLQLEHLLLDLQMILNGINNYKNPRLTRMLTFKFYMPKKATELKHLQCLEEELKPLEEALNLAPSKNFHLRPRDLISDINVIVLELKGSETTFMCEYADETATIVEFLNRWITFAQSIISTLT	–	–	binds	–
HaMut5D (K48E, V69A, Q74P, N88D, C125A) (ligand, human IL-2 mutein; not shown: C-terminal FLAG and poly-His tag) APTSSSTKKTQLQLEHLLLDLQMILNGINNYKNPKLTRMLTFKFYMPEKATELKHLQCLEEELKPLEEALNLAPSKNFHLRPRDLISDINVIVLELKGSETTFMCEYADETATIVEFLNRWITFAQSIISTLT	–	–	binds	–
HaMut7D (N71R, V69A, Q74P, N88D, C125A) (ligand, human IL-2 mutein; not shown: C-terminal FLAG and poly-His tag) APTSSSTKKTQLQLEHLLLDLQMILNGINNYKNPKLTRMLTFKFYMPKKATELKHLQCLEEELKPLEEALRLAPSKNFHLRPRDLISDINVIVLELKGSETTFMCEYADETATIVEFLNRWITFAQSIISTLT	–	–	–	Kd [4]: ~0.2 nM
HaMut8D (K35R, K48E, E68D, N88D, C125A) (ligand, human IL-2 mutein; not shown: C-terminal FLAG and poly-His tag) APTSSSTKKTQLQLEHLLLDLQMILNGINNYKNPRLTRMLTFKFYMPEKATELKHLQCLEEELKPLEDVLNLAQSKNFHLRPRDLISDINVIVLELKGSETTFMCEYADETATIVEFLNRWITFAQSIISTLT	–	–	binds	–
HaMut6D (E68D, V69A, Q74P, N88D, C125A) (ligand, human IL-2 mutein; not shown: C-terminal FLAG and poly-His tag) APTSSSTKKTQLQLEHLLLDLQMILNGINNYKNPKLTRMLTFKFYMPKKATELKHLQCLEEELKPLEDALNLAPSKNFHLRPRDLISDINVIVLELKGSETTFMCEYADETATIVEFLNRWITFAQSIISTLT	–	–	binds	–
HaMut2D (N30S, V69A, Q74P, N88D, C125A) (ligand, human IL-2 mutein; not shown: C-terminal FLAG and poly-His tag) APTSSSTKKTQLQLEHLLLDLQMILNGINSYKNPKLTRMLTFKFYMPKKATELKHLQCLEEELKPLEEALNLAPSKNFHLRPRDLISDINVIVLELKGSETTFMCEYADETATIVEFLNRWITFAQSIISTLT	–	–	binds	–
26H7 (antibody, V domains shown) VH: EVQLVQSGAEVKKPGESLKISCKGSGYRFTNYWIGWVRQMPGKGLEWMGIIYPGDSDTKYSPSFQGQVTISADKSISTAYLQWSSLKASDTAMYYCARHGGYSGRSYYYGMDVWGQGTAVTVSS VL: not shown	~0.31	~0.0013	–	–
